# Data from the supplement of paper PMC5998384.
# Assays:
# HeLa Kyoto [1] = assay: solubility in G1/S (NP-40 vs SDS abundance) (log2 ratio); higher = more soluble; conditions: cell cycle stage: G1/S
# HeLa Kyoto [2] = assay: solubility change mitosis vs G1/S (difference of NP-40 vs SDS log2 ratios) (log2 ratio difference); higher = more soluble in mitosis
# 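Wherever solubility change mitosis vs G1/S (difference of NP-40 vs SDS log2 ratios) is given: synchronized HeLa Kyoto cells (double thymidine block for G1/S, nocodazole release for mitosis), protein amounts in NP-40 versus SDS lysates quantified by mass spectrometry, three biological replicates.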
# 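Wherever solubility in G1/S (NP-40 vs SDS abundance) is given: HeLa Kyoto cells arrested at G1/S by double thymidine block, proteins quantified by TMT10plex mass spectrometry in mild NP-40 versus SDS extracts, three biological replicates.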
# Chain of MAP4K5 (chain, as listed by the source): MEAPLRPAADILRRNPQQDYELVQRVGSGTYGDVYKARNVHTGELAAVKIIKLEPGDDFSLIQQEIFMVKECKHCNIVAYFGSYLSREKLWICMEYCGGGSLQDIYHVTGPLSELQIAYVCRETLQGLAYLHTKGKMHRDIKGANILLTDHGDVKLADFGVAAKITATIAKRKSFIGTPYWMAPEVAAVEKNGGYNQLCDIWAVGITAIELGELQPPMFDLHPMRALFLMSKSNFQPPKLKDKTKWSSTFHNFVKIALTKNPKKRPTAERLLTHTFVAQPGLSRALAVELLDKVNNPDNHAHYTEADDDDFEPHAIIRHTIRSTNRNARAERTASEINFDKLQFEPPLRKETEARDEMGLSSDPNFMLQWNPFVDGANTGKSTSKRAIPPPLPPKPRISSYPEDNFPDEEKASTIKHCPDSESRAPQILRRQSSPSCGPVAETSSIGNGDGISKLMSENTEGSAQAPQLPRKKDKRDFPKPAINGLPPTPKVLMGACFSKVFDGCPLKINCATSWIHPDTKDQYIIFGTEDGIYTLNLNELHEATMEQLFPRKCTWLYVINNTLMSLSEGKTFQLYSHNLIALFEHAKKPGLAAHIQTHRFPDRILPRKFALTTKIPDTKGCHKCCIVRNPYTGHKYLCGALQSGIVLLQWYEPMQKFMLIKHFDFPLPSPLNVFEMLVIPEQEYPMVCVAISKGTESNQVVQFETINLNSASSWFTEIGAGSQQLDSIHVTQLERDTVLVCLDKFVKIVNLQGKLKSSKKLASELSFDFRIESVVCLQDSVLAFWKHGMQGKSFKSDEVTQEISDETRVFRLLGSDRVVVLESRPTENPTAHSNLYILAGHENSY
Substance,solubility in G1/S (log2) (HeLa Kyoto [1]),solubility change mitosis (log2) (HeLa Kyoto [2])
MAMASPAIGQRPYPLLLDPEPPRYLQSLSGPELPPPPPDRSSRLCVPAPLSTAPGAREGRSARRAARGNLEPPPRASRPARPLRPGLQQRLRRRPGAPRPRDVRSIFEQPQDPRVPAERGEGHCFAELVLPGGPGWCDLCGREVLRQALRCTNCKFTCHPECRSLIQLDCSQQEGLSRDRPSPESTLTVTFSQNVCKPVEETQRPPTLQEIKQKIDSYNTREKNCLGMKLSEDGTYTGFIKVHLKLRRPVTVPAGIRPQSIYDAIKEVNLAATTDKRTSFYLPLDAIKQLHISSTTTVSEVIQGLLKKFMVVDNPQKFALFKRIHKDGQVLFQKLSIADRPLYLRLLAGPDTEVLSFVLKENETGEVEWDAFSIPELQNFLTILEKEEQDKIQQVQKKYDKFRQKLEEALRESQGKPG [RASSF5],0.328,-0.108
MAP4K5,0.172,-0.0819
MAPEENAGTELLLQSFERRFLAARTLRSFPWQSLEAKLRDSSDSELLRDILHKTVKHPVCVKHPPSVKYARCFLSELIKKHEAVHTEPLDELYEALAETLMAKESTQGHRSYLLPSGGSVTLSESTAIISYGTTGLVTWDAALYLAEWAIENPAVFTNRTVLELGSGAGLTGLAICKMCRPRAYIFSDCHSRVLEQLRGNVLLNGLSLEADITAKLDSPRVTVAQLDWDVATVHQLSAFQPDVVIAADVLYCPEAIMSLVGVLRRLAACREHQRAPEVYVAFTVRNPETCQLFTTELGRAGIRWEVEPRHEQKLFPYEEHLEMAMLNLTL [EEF2KMT],0.0707,-0.00202
MAPGEVTITVRLIRSFEHRNFKPVVYHGVNLDQTVKEFIVFLKQDIPLRTNLPPPFRNYKYDALKIIHQAHKSKTNELVLSLEDDERLLLKEDSTLKAAGIASETEIAFFCEEDYKNYKANPISSW [C2ORF76],-0.239,0.0795
MAPPAGGAAAAASDLGSAAVLLAVHAAVRPLGAGPDAEAQLRRLQLSADPERPGRFRLELLGAGPGAVNLEWPLESVSYTIRGPTQHELQPPPGGPGTLSLHFLNPQEAQRWAVLVRGATVEGQNGSKSNSPPALGPEACPVSLPSPPEASTLKGPPPEADLPRSPGNLTEREELAGSLARAIAGGDEKGAAQVAAVLAQHRVALSVQLQEACFPPGPIRLQVTLEDAASAASAASSAHVALQVHPHCTVAALQEQVFSELGFPPAVQRWVIGRCLCVPERSLASYGVRQDGDPAFLYLLSAPREAPATGPSPQHPQKMDGELGRLFPPSLGLPPGPQPAASSLPSPLQPSWSCPSCTFINAPDRPGCEMCSTQRPCTWDPLAAAST [SHARPIN],0.196,-0.0725
MAPRKGSSRVAKTNSLRRRKLASFLKDFDREVEIRIKQIESDRQNLLKEVDNLYNIEILRLPKALREMNWLDYFALGGNKQALEEAATADLDITEINKLTAEAIQTPLKSAKTRKVIQVDEMIVEEEEEEENERKNLQTARVKRCPPSKKRTQSIQGKGKGKRSSRANTVTPAVGRLEVSMVKPTPGLTPRFDSRVFKTPGLRTPAAGERIYNISGNGSPLADSKEIFLTVPVGGGESLRLLASDLQRHSIAQLDPEALGNIKKLSNRLAQICSSIRTHK [CDCA8],-1.64,0.0931
MAQAHRTPQPRAAPSQPRVFKLVLLGSGSVGKSSLALRYVKNDFKSILPTVGCAFFTKVVDVGATSLKLEIWDTAGQEKYHSVCHLYFRGANAALLVYDITRKDSFLKAQQWLKDLEEELHPGEVLVMLVGNKTDLSQEREVTFQEGKEFADSQKLLFMETSAKLNHQVSEVFNTVAQELLQRSDEEGQALRGDAAVALNKGPARQAKCCAH [RAB17],0.138,-0.134
MAQASLLACEGLAGVSLVPTAASKKMMLSQIASKQAENGERAGSPDVLRCSSQGHRKDSDKSRSRKDDDSLSEASHSKKTVKKVVVVEQNGSFQVKIPKNFVCEHCFGAFRSSYHLKRHILIHTGEKPFECDICDMRFIQKYHLERHKRVHSGEKPYQCERCHQCFSRTDRLLRHKRMCQGCQSKTSDGQFSL [ZNF740],-0.111,-0.0892
MAQGLIEVERKFLPGPGTEERLQELGGTLEYRVTFRDTYYDTPELSLMQADHWLRRREDSGWELKCPGAAGVLGPHTEYKELTAEPTIVAQLCKVLRADGLGAGDVAAVLGPLGLQEVASFVTKRSAWKLVLLGADEEEPQLRVDLDTADFGYAVGEVEALVHEEAEVPTALEKIHRLSSMLGVPAQETAPAKLIVYLQRFRPQDYQRLLEVNSSRERPQETEDPDHCLG [THTPA],0.0904,0.0566
MAQGSHQIDFQVLHDLRQKFPEVPEVVVSRCMLQNNNNLDACCAVLSQESTRYLYGEGDLNFSDDSGISGLRNHMTSLNLDLQSQNIYHHGREGSRMNGSRTLTHSISDGQLQGGQSNSELFQQEPQTAPAQVPQGFNVFGMSSSSGASNSAPHLGFHLGSKGTSSLSQQTPRFNPIMVTLAPNIQTGRNTPTSLHIHGVPPPVLNSPQGNSIYIRPYITTPGGTTRQTQQHSGWVSQFNPMNPQQVYQPSQPGPWTTCPASNPLSHTSSQQPNQQGHQTSHVYMPISSPTTSQPPTIHSSGSSQSSAHSQYNIQNISTGPRKNQIEIKLEPPQRNNSSKLRSSGPRTSSTSSSVNSQTLNRNQPTVYIAASPPNTDELMSRSQPKVYISANAATGDEQVMRNQPTLFISTNSGASAASRNMSGQVSMGPAFIHHHPPKSRAIGNNSATSPRVVVTQPNTKYTFKITVSPNKPPAVSPGVVSPTFELTNLLNHPDHYVETENIQHLTDPTLAHVDRISETRKLSMGSDDAAYTQALLVHQKARMERLQRELEIQKKKLDKLKSEVNEMENNLTRRRLKRSNSISQIPSLEEMQQLRSCNRQLQIDIDCLTKEIDLFQARGPHFNPSAIHNFYDNIGFVGPVPPKPKDQRSIIKTPKTQDTEDDEGAQWNCTACTFLNHPALIRCEQCEMPRHF [TAB2],0.348,-0.0447
MAQKENSYPWPYGRQTAPSGLSTLPQRVLRKEPVTPSALVLMSRSNVQPTAAPGQKVMENSSGTPDILTRHFTIDDFEIGRPLGKGKFGNVYLAREKKSHFIVALKVLFKSQIEKEGVEHQLRREIEIQAHLHHPNILRLYNYFYDRRRIYLILEYAPRGELYKELQKSCTFDEQRTATIMEELADALMYCHGKKVIHRDIKPENLLLGLKGELKIADFGWSVHAPSLRRKTMCGTLDYLPPEMIEGRMHNEKVDLWCIGVLCYELLVGNPPFESASHNETYRRIVKVDLKFPASVPMGAQDLISKLLRHNPSERLPLAQVSAHPWVRANSRRVLPPSALQSVA [AURKB],-1.2,-0.11
MAQRYDDLPHYGGMDGVGIPSTMYGDPHAARSMQPVHHLNHGPPLHSHQYPHTAHTNAMAPSMGSSVNDALKRDKDAIYGHPLFPLLALIFEKCELATCTPREPGVAGGDVCSSESFNEDIAVFAKQIRAEKPLFSSNPELDNLMIQAIQVLRFHLLELEKVHELCDNFCHRYISCLKGKMPIDLVIDDREGGSKSDSEDITRSANLTDQPSWNRDHDDTASTRSGGTPGPSSGGHTSHSGDNSSEQGDGLDNSVASPSTGDDDDPDKDKKRHKKRGIFPKVATNIMRAWLFQHLTHPYPSEEQKKQLAQDTGLTILQVNNWFINARRRIVQPMIDQSNRAVSQGTPYNPDGQPMGGFVMDGQQHMGIRAPGPMSGMGMNMGMEGQWHYM [MEIS1],0.363,-0.208
MARGGDTGCTGPSETSASGAAAIALPGLEGPATDAQCQTLPLTVLKSRSPSPRSLPPALSCPPPQPAMLEHLSSLPTQMDYKGQKLAEQMFQGIILFSAIVGFIYGYVAEQFGWTVYIVMAGFAFSCLLTLPPWPIYRRHPLKWLPVQESSTDDKKPGERKIKRHAKNN [SPCS1],-0.248,-0.00723
MASESETLNPSARIMTFYPTMEEFRNFSRYIAYIESQGAHRAGLAKVVPPKEWKPRASYDDIDDLVIPAPIQQLVTGQSGLFTQYNIQKKAMTVREFRKIANSDKYCTPRYSEFEELERKYWKNLTFNPPIYGADVNGTLYEKHVDEWNIGRLRTILDLVEKESGITIEGVNTPYLYFGMWKTSFAWHTEDMDLYSINYLHFGEPKSWYSVPPEHGKRLERLAKGFFPGSAQSCEAFLRHKMTLISPLMLKKYGIPFDKVTQEAGEFMITFPYGYHAGFNHGFNCAESTNFATRRWIEYGKQAVLCSCRKDMVKISMDVFVRKFQPERYKLWKAGKDNTVIDHTLPTPEAAEFLKESELPPRAGNEEECPEEDMEGVEDGEEGDLKTSLAKHRIGTKRHRVCLEIPQEVSQSELFPKEDLSSEQYEMTECPAALAPVRPTHSSVRQVEDGLTFPDYSDSTEVKFEELKNVKLEEEDEEEEQAAAALDLSVNPASVGGRLVFSGSKKKSSSSLGSGSSRDSISSDSETSEPLSCRAQGQTGVLTVHSYAKGDGRVTVGEPCTRKKGSAARSFSERELAEVADEYMFSLEENKKSKGRRQPLSKLPRHHPLVLQECVSDDETSEQLTPEEEAEETEAWAKPLSQLWQNRPPNFEAEKEFNETMAQQAPHCAVCMIFQTYHQVEFGGFNQNCGNASDLAPQKQRTKPLIPEMCFTSTGCSTDINLSTPYLEEDGTSILVSCKKCSVRVHASCYGVPPAKASEDWMCSRCSANALEEDCCLCSLRGGALQRANDDRWVHVSCAVAILEARFVNIAERSPVDVSKIPLPRFKLKCIFCKKRRKRTAGCCVQCSHGRCPTAFHVSCAQAAGVMMQPDDWPFVVFITCFRHKIPNLERAKGALQSITAGQKVISKHKNGRFYQCEVVRLTTETFYEVNFDDGSFSDNLYPEDIVSQDCLQFGPPAEGEVVQVRWTDGQVYGAKFVASHPIQMYQVEFEDGSQLVVKRDDVYTLDEELPKRVKSRLSVASDMRFNEIFTEKEVKQEKKRQRVINSRYREDYIEPALYRAIME [KDM4A],-0.143,0.0206
MASGDFCSPGEGMEILQQVCSKQLPPCNLSKEDLLQNPYFSKLLLNLSQHVDESGLSLTLAKEQAQAWKEVRLHKTTWLRSEILHRVIQELLVDYYVKIQDTNVTSEDKKFHETLEQRLLVTELMRLLGPSQEREIPPLLGLEKADLLELMPLSEDFVWMRARLQQEVEEQLKKKCFTLLCYYDPNSDADSETVKAAKVWKLAEVLVGEQQQCQDAKSQQKEQMLLLEKKSAAYSQVLLRCLTLLQRLLQEHRLKTQSELDRINAQYLEVKCGAMILKLRMEELKILSDTYTVEKVEVHRLIRDRLEGAIHLQEQDMENSRQVLNSYEVLGEEFDRLVKEYTVLKQATENKRWALQEFSKVYR [HAUS4],0.377,-0.0485
MASKKVCIVGSGNWGSAIAKIVGGNAAQLAQFDPRVTMWVFEEDIGGKKLTEIINTQHENVKYLPGHKLPPNVVAVPDVVQAAEDADILIFVVPHQFIGKICDQLKGHLKANATGISLIKGVDEGPNGLKLISEVIGERLGIPMSVLMGANIASEVADEKFCETTIGCKDPAQGQLLKELMQTPNFRITVVQEVDTVEICGALKNVVAVGAGFCDGLGFGDNTKAAVIRLGLMEMIAFAKLFCSGPVSSATFLESCGVADLITTCYGGRNRKVAEAFARTGKSIEQLEKELLNGQKLQGPETARELYSILQHKGLVDKFPLFMAVYKVCYEGQPVGEFIHCLQNHPEHM [GPD1],0.278,0.00396
MASSGAGDPLDSKRGEAPFAQRIDPTREKLTPEQLHSMRQAELAQWQKVLPRRRTRNIVTGLGIGALVLAIYGYTFYSISQERFLDELEDEAKAARARALARASGS [COA3],-0.65,0.902
